Consider 3 molecules from patent US20120014870A1 (FORERUNNER PHARMA RESEARCH, published 2012).

B1: 22DA17 (antibody, IgG2b, V domains shown)
VH: QVQLQQSGAELVRPGVSVKLSCKASGYSLTTYWMNWVKQRPGQGLEWIGMIHPSDSETVINQKFKDKATLTVDKSSSTAYMQLSSPTSEDSAVYYCARWDYDYYFDYWGQGTTLTVSS
VL: DVLMTQTPLSLPVSLGDQASISCRSSQSIVHSNGNTYLEWYLQKPGQSPNLLIYKVSNRFSGVPDRFSGSGSGTDFTLKISRVEAEDLGVYYCFQGSHVPFTFGSGTKLEIK
notes: Mouse hybridoma antibody, isotype IgG2b; also called Bio-22DA17 (biotinylated form)
B2: 22DA23 (antibody, IgG1, V domains shown)
VH: EIQLQQSRPELVRPGASVKVSCQASGYAFTNYNMYWVKQSHGKSLEWIGYIDPYNDDTTYNQKFKGKATLTVDKSSSTAYMHLNSLTSEDSAVFYCARFRLGYYAMDYWGQGASVTVSS
VL: DIVLTQSPASLAVSLGQRATISCKASQSVDYDLDSYMNWYQQKPGQPPKLLIYVASNLESGIPARFSGSGSGTDFTLNIHPVEEEDAATYYCQQSNEDPFTFGSGTKLEIK
notes: Mouse hybridoma antibody, isotype IgG1; also called anti-human LGR7 monoclonal antibody 22DA23
B3: 22SD7 (antibody, IgG2a, V domains shown)
VH: QVQLQQPGAELVRPGASVKLSCKASGYTFTSYWMNWVKQRPEQGLEWIGRIDPYDSETHYNQKFKDKAILTVDKSSSTAYMQLSSLTSEDSAVYYCARWEVVAPWDYWGQGTTLTVSS
VL: DIVMTQAAPSVPVTPGESVSISCRSSKSLLHSNGNTYLYWFLQRPGQSPQLLIYRMSNLASGVPDRFSGSGSGTAFTLRISRVEAEDVGVYYCMQHLEYPWTFGGGTKLEIK
notes: Mouse hybridoma antibody, isotype IgG2a; also called anti-LGR7 monoclonal antibody 22SD7

The target of the experiment is T1, HA-tagged full-length human LGR7 expressed on cells (HA-LGR7/DG44, HA-LGR7/BaF3) (human, UniProt Q9HBX9 1-757).
T1 construct: Full-length human LGR7 with an N-terminal HA tag, forcedly expressed in DG44 (CHO-derived) or Ba/F3 cells; also called HA-LGR7/DG#24; HA-LGR7/DG44#24
T1 sequence: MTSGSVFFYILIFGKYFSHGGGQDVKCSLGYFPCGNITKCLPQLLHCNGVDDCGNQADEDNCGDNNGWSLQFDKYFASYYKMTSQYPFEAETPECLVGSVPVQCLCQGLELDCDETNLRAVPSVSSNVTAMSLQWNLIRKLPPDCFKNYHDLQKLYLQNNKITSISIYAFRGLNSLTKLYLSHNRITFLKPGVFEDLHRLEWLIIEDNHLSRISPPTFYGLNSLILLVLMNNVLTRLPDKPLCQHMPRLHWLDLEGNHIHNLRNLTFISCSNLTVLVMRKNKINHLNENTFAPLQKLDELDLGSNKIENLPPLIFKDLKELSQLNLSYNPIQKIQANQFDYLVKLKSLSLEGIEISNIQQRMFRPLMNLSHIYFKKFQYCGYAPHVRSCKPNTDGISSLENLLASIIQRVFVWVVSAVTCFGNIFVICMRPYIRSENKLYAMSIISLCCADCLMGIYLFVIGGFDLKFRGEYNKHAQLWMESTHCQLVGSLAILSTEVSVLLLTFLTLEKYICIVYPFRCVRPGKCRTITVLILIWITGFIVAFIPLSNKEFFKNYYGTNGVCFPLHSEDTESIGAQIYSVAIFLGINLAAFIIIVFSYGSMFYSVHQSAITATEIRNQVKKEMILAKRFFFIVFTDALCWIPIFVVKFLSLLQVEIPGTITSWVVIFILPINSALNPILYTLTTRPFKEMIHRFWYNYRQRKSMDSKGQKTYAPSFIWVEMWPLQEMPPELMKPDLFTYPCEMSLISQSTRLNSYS
The experiment in a line: flow cytometry, hybridoma supernatant on LGR7-expressing DG44 cells against parental DG44 cells. Here is the method:
The binding of the obtained hybridomas to human LGR7/DG44 cells was evaluated by flow cytometry. The cell line expressing human LGR7 suspended in FACS buffer (2% FBS/PBS/0.05% NaN₃) was diluted to 1×10⁶ cells/mL using FACS buffer, and this was aliquoted into a Falcon 353910 round-bottom 96-well plate at 50 μL/well. The hybridoma culture supernatant diluted to a suitable concentration was added to the wells containing the cells, and this was reacted for 60 minutes on ice. Next, the cells were rinsed once with FACS buffer. As a secondary antibody, a goat F(ab′)₂ fragment anti-mouse IgG Fcγ-FITC (Beckman Coulter) was added to the wells containing the cells, and this was reacted for 30 minutes on ice. After the reaction, the supernatant was removed by centrifugation, and the cells were suspended in 100 μL of FACS buffer, and subjected to flow cytometry. The FACS Calibur (Becton Dickinson) was used for the flow cytometry. A gate for the viable cell population was established using a forward scatter/side scatter dot blot, and an FL1 histogram was produced for the cells included in the population, and their binding activity was evaluated.
The hybridoma supernatants were reacted with DG44 cells induced to express LGR7 and the parental DG44 cells, respectively. Thus, hybridomas that specifically react with LGR7-expressing cells were obtained. The hybridomas from the wells were made into single clones by the limiting dilution method. The isotype of each antibody was analyzed using an IsoStrip® mouse monoclonal antibody isotyping kit (Roche Diagnostics). As a result, the isotype of 22DA6, 22DA7, 22DA11, 22DA12, 22DA23, and 22DA24 is IgG1; and the isotype of 22DA4, 22DA10, 22SD7, 22SD25, 22SD31, and 22SD48 is IgG2a; and the isotype of 22DA17 and 22DA20 is IgG2b. Expansion culture of a single-clone hybridoma was performed, and then the antibody was purified from the culture supernatant using a protein G column according to the manual. The purified antibody was subjected to protein quantification by DC Protein Assay, etc.
B1: the binding result was “binds”.
The value for B2 was “binds”; that for B3 was “binds”.
